In patent US20230041822A1 (Molecular Partners, published 2023):

Columns and labels:
[1] = target: T1, HBVc18 peptide-MHC complex (HBVc18pMHC), biotinylated recombinant tripartite complex of HLA-A*0201, human … (human; hepatitis B virus); test: SPR (ProteOn), biotinylated HBVc18pMHC on the NLC chip, DARPin protein injected, multi-trace fit [continued) F]
T1 construct: also called HLA-A*0201: HBc18; target peptide-MHC complex
Protocol: (§1) The binding affinities of the purified ankyrin repeat proteins on the HBVc18pMHC target were analyzed using a ProteOn Surface Plasmon Resonance (SPR) instrument (BioRad) and the measurement was performed according standard procedures known to the person skilled in the art.
(§2) Briefly, biotinylated HBVc18pMHC were diluted in PBST (PBS, pH 7.4 containing 0.005% Tween 20®) and coated on a NLC chip (BioRad) to a level of around 1000 resonance units (RU). […] No target regeneration was performed. The signals (i.e. resonance unit (RU) values) of the interspots were subtracted from the RU traces obtained after injection of ankyrin repeat protein. Based on the SPR traces obtained from the on-rate and off-rate measurements, the on- and off-rates of the corresponding ankyrin repeat proteins towards the pMHC complexes were determined.

[2] = target: T1, HBVc18 peptide-MHC complex …; test: SPR (ProteOn), biotinylated HBVc18pMHC on NLC chip, ankyrin repeat protein injected, PBST
Protocol: as §2
Dissociation constants (KD) were calculated from the estimated on- and off-rates using standard procedures known to the person skilled in the art.

[3] = target: T1, HBVc18 peptide-MHC complex …; test: SPR (ProteOn), biotinylated HBVc18pMHC on the NLC chip, DARPin protein injected, multi-trace fit [continued) J]
Protocol: as §1, §2

[4] = target: T1, HBVc18 peptide-MHC complex …; test: SPR (ProteOn), biotinylated HBVc18pMHC on the NLC chip, DARPin protein injected, multi-trace fit [continued) E]
Protocol: as §1, §2

[5] = target: T1, HBVc18 peptide-MHC complex …; test: SPR (ProteOn), biotinylated HBVc18pMHC on the NLC chip, DARPin protein injected, multi-trace fit
Protocol: as §1, §2

[6] = target: T1, HBVc18 peptide-MHC complex …; test: SPR (ProteOn), biotinylated HBVc18pMHC on the NLC chip, DARPin protein injected, multi-trace fit [continued) G]
Protocol: as §1, §2

[7] = target: T1, HBVc18 peptide-MHC complex …; test: SPR (ProteOn), biotinylated HBVc18pMHC on the NLC chip, DARPin protein injected, multi-trace fit; remark: listed apart in the source
Protocol: as §1, §2

[8] = target: T1, HBVc18 peptide-MHC complex …; test: SPR (ProteOn), biotinylated HBVc18pMHC on the NLC chip, DARPin protein injected, multi-trace fit [continued) H]
Protocol: as §1, §2

[9] = target: T1, HBVc18 peptide-MHC complex …; test: SPR (ProteOn), biotinylated HBVc18pMHC on the NLC chip, DARPin protein injected, multi-trace fit [continued) D]
Protocol: as §1, §2

[10] = target: T1, HBVc18 peptide-MHC complex …; test: SPR (ProteOn), biotinylated HBVc18pMHC on the NLC chip, DARPin protein injected, multi-trace fit [continued) I]
Protocol: as §1, §2

[11] = target: T1, HBVc18 peptide-MHC complex …; test: SPR (ProteOn), biotinylated HBVc18pMHC on the NLC chip, DARPin protein injected, multi-trace fit; remark: listed apart in the source
Protocol: as §1, §2

B1: TCE DARPin® protein #22 (designed binder, not shown: small tags and cut ends)
chain: GSDLGKKLLSAAQSGQDDEVRILLGAGADVNAKDKWGHTPLHLAAVKGHLEIAEVLLKAGADVNAKDEWGSTPLHLAASQGHLEIVEVLLKAGADVNAKDKKGATPLHLAALVGHLEIVEVLLKAVADVNAQDKSGKTPADLAARAGHQDIAEVLQKAA
[1]
  koff: 0.0115 s⁻¹
  kon: 833000 M⁻¹ s⁻¹
[2]
  Kd: 13.8 nM

B2: TCE DARPin® protein #26 (designed binder, not shown: small tags and cut ends)
chain: GSDLGKKLLQAARAGQLDEVHELLKAGADVNAKDQHGKTPMHLAAQIGHLEIVEVLLKAGADVNAKDHIGWTPLHLAASVGHLEIVEVLLKAGADVNAKDQEGWTPLHVAAQLGHLEIVEVLLKAGADVNAQDKSGKTPADLAARAGHQDSAEVLQKAA
[2]
  Kd: 9.33 nM
[3]
  koff: 0.000812 s⁻¹
  kon: 87000 M⁻¹ s⁻¹

B3: TCE DARPin® protein #21 (designed binder, not shown: small tags and cut ends)
chain: GSDLGIKLLFAANFGQDDEVRILLAAGADVNAKDQSGRTPLHLAALWGHLEIVEVLLKAGADVNAKDVFGLTPLHIAATFGHLEIVEVLLKAGVDVNAQDYTGHTPADLAALIGHEDIAEVLQKAA
[2]
  Kd: 9.23 nM
[4]
  koff: 0.00106 s⁻¹
  kon: 115000 M⁻¹ s⁻¹

B4: TCE DARPin® protein #18 (designed binder, not shown: small tags and cut ends)
chain: GSDLGYKLLTAAIVGQDDEVRILLAAGADVNAKDQSGLTPLHLAAAYGHLEIVEVLLKAGADVNAKDKHGRTPLHLAALEGHLEIVEVLLKAGADVNAQDQFGITPADLAAAVGHEDIAEVLQKAA
[2]
  Kd: 7.15 nM
[5]
  koff: 0.00218 s⁻¹
  kon: 305000 M⁻¹ s⁻¹

B5: TCE DARPin® protein #23 (designed binder, not shown: small tags and cut ends)
chain: GSDLGQKLLTAAIVGQDDEVRILLAAGADVNAKDQSGLTPLHLAAAYGHLEIVEVLLKAGADVNAKDKHGRTPLHLAALEGHLEIVEVLLKAGADVNAQDQFGITPADLAAAVGHEDIAEVLQKAA
[6]
  koff: 0.00274 s⁻¹
  kon: 387000 M⁻¹ s⁻¹
[2]
  Kd: 7.1 nM

B6: TCE DARPin® protein #16 (designed binder, not shown: small tags and cut ends)
chain: GSDLGHKLLFAASAGQDDEVRILLAAGADVNAKDESGQTPLHYAAFVGHLEIVEVLLKAGADVNAKDQWGHTPLHVAATFGHLEIVEVLLKAGADVNAQDTWGTTPADLAATFGHEDIAEVLQKAA
[7]
  koff: 0.000307 s⁻¹
  kon: 66100 M⁻¹ s⁻¹
[2]
  Kd: 4.65 nM

B7: TCE DARPin® protein #24 (designed binder, not shown: small tags and cut ends)
chain: GSDLGWKLLHAATTGQDDEVRILLAAGADVNAKDESGQTPLHYAAFVGHLEIVEVLLKAGADVNAKDQWGHTPLHVAATFGHLEIVEVLLKAGADVNAQDTWGTTPADLAATFGHEDIAEVLQKAA
[2]
  Kd: 4.72 nM
[8]
  koff: 0.000288 s⁻¹
  kon: 61100 M⁻¹ s⁻¹

B8: TCE DARPin® protein #20 (designed binder, not shown: small tags and cut ends)
chain: GSDLGFKLLEAALEGQDDEVRILLAAGADVNAKDESGQTPLHYAAFVGHLEIVEVLLKAGADVNAKDQWGHTPLHVAATFGHLEIVEVLLKAGADVNAQDTWGTTPADLAATFGHEDIAEVLQKAA
[2]
  Kd: 0.736 nM
[9]
  koff: 3.26e-05 s⁻¹
  kon: 44300 M⁻¹ s⁻¹

B9: TCE DARPin® protein #25 (designed binder, not shown: small tags and cut ends)
chain: GSDLGSKLLYAAISGQDDEVRILLAAGADVNAKDESGQTPLHYAAFVGHLEIVEVLLKAGADVNAKDQWGHTPLHVAATFGHLEIVEVLLKAGADVNAQDTWGTTPADLAATFGHEDIAVVLQKAA
[2]
  Kd: 1.03 nM
[10]
  koff: 3.17e-05 s⁻¹
  kon: 30800 M⁻¹ s⁻¹

B10: TCE DARPin® protein #17 (designed binder, not shown: small tags and cut ends)
chain: GSDLGQKLLLAAAIGQDDEVRILLAAGADVNAKDESGHTPLHYAAHVGHLEIVEVLLKAGDVNAKDHRGFTPLHVAAQIGHLEIVEVLLKAGADVNAQDNWGITPADLAAWWGHEDIAEVLQKAA
[11]
  koff: 6.24e-06 s⁻¹
  kon: 16900 M⁻¹ s⁻¹
[2]
  Kd: 0.369 nM
